Measured values as given in patent US12065466B2, “Methods and compositions for protein sequencing” (Quantum-Si Incorporated, priority 2020, dated 2024).

Legend:
[1] = test system: peptides with different N-terminal amino acids, penultimate alanine; assay: Biolayer interferometry of multivalent amino acid binders; assay type: binding
Procedure: The amino acid binding profile of each Bis-atClpS2-V1 binder (PS609, PS610, and PS611) was evaluated by biolayer interferometry as described above. The monovalent atClpS2-V1 was run as a control. Measurements with each binder were carried out for the amino acids F, Y, and W, along with I, L, M, and V as negative controls. All peptides contained a penultimate alanine (A). Response curves for the tandem binders PS609, PS610, and PS611 are shown in FIGS. 35B, 35C, and 35D, respectively.
The multivalent binder PS612 is a polypeptide that contains tandem copies of two different ClpS protein monomers (atClpS2-V1 and PS372). The amino acid binding profile of PS612 was evaluated by biolayer interferometry as described above. The monovalent binders atClpS2-V1 and PS372 were separately run as controls.
The multivalent binder PS614 is a polypeptide that contains two copies of the ClpS binder PS372 oriented in tandem. The amino acid binding profile of PS614 was evaluated by biolayer interferometry as described above.
The multivalent binders PS637, PS638, and PS639 are polypeptides that each contain two copies of the ClpS binder PS557 oriented in tandem and separated by Linker 1, Linker 2, and Linker 3, respectively. The amino acid binding profiles of each binder was evaluated by biolayer interferometry as described above.

[2] = test system: labeled N-terminal LA peptide; assay: Stopped-flow dissociation rate (koff), PS557 derivatives; assay type: binding; conditions: excess unlabeled trap peptide
Description: (§1) To measure the dissociation rate (koff) by stopped-flow, complexes of binder bound to labeled peptide substrate at an optimal concentration were rapidly mixed with excess unlabeled trap peptide. […] The averaged raw traces were fitted with an exponential equation to determine the koff (FIG. 37B, bottom panel).

[3] = test system: labeled N-terminal FA peptide; assay: Stopped-flow dissociation rate (koff), atClpS2-V1 derivatives; assay type: binding; conditions: excess unlabeled trap peptide
Description: as §1

[4] = test system: amino acid at a terminal position of a polypeptide; assay: Amino acid binding preference of recognition proteins (Tables 1 and 2); conditions: Table 1, ClpS proteins; amino acid identity at a terminal position of a polypeptide; inferred from literature and/or demonstrated by the inventors
Description: It should be appreciated that these sequences and other examples described herein are meant to be non-limiting, and recognition molecules in accordance with the application can include any homologs, variants thereof, or fragments thereof minimally containing domains or subdomains responsible for peptide recognition.

[5] = test system: N-terminal amino acids of peptides; assay: Single-molecule terminal amino acid recognition by labeled recognition molecule (dwell time analysis); assay type: binding
Procedure: An adaptor protein involved in proteolytic pathways was identified as a potential candidate for use as a labeled recognition molecule for detecting N-terminal aromatic residues. The adaptor protein, ClpS2 from an α-proteobacterium (A. tumefaciens), was expressed and labeled at an exposed cysteine residue. […] The exposed cysteine residue was labeled with a rhodamine dye (ATTO 532).
Peptides having different N-terminal aromatic residues were prepared to test whether the labeled ClpS2 was capable of N-terminal amino acid discrimination at the single molecule level.
FIG. 19C is a plot showing discriminant pulse durations (time duration of signal peaks) among the three N-terminal residues when reversibly bound by labeled ClpS2. FIG. 19D is a plot showing discriminant interpulse durations (time duration between signal pulses) among the three N-terminal residues. […] Mean pulse duration for the different N-terminal residues is visualized by histograms (A)-(B) and layered histogram (C).

[6] = test system: FA, LF, WA, and YA peptides; assay: Binder-on-chip single-molecule assay (PS218 and wild-type atClpS1); assay type: binding; design: unit not given here
Procedure: A variant of atClpS1 was created with active-site substitutions rationally designed to achieve longer pulse widths which can be favorable in single-molecule sequencing reactions. The designed variant (PS218) contains the following mutations relative to wild-type atClpS1: M51F, E52Q, M73T, T70 W. Binder-on-chip experiments were performed for PS218 with FA, LF, WA, and YA peptides to evaluate recognition by signal pulse detection in single-molecule assays. As shown by the results in Table 7, the substitutions relative to the wild-type protein result in longer pulse widths with each peptide tested.

B1: PS638: two copies of PS557 in tandem separated by Linker 2 (protein)
chain: MPTAASATESAIEDTPAPARPEVDGRTKPKRQPRYHVVLWNDDDHTYQYVVVMLQSLFGHPPERGYRLAKEVDTQGRVIVLTTTREHAELKRDQIHAFGYDRLLARSKGSMKASIEAEEGSAGSAAGSGEFMPTAASATESAIEDTPAPARPEVDGRTKPKRQPRYHVVLWNDDDHTYQYVVVMLQSLFGHPPERGYRLAKEVDTQGRVIVLTTTREHAELKRDQIHAFGYDRLLARSKGSMKASIEAEEGGSHHHHHHHHHHGGGSGGGSGGGSGLNDFFEAQKIEWHEGGGSGGGSGGGSGLNDFFEAQKIEWHE
N-terminal amino acids bound (biolayer interferometry) [1]: N-terminal I, L, and V

B2: PS696 (protein)
chain: MPTAASATESAIEDTPAPARPEVDGRTKPKRQPRYHVVLWNDDDHTYQYVVVMLQSLFGHPPERGYRLAKEVDTQGRVIVLTTTREHAELKRDQIHAFGYDRLLARSKGSMKASIEAEEGSAGSAAGSGEFMDKDCEMKRTTLDSPLGKLELSGCEQGLHEIKLLGKGTSAADAVEVPAPAAVLGGPEPLMQATAWLNAYFHQPEAIEEFPVPALHHPVFQQESFTRQVLWKLLKVVKFGEVISYQQLAALAGNPAATAAVKTALSGNPVPILIPCHRVVSSSGAVGGYEGGLAVKEWLLAHEGHRLGKPGLGGSAGSAAGSGEFHHHHHHHHHHGGGSGGGSGGGSGLNDFFEAQKIEWHEGGGSGGGSGGGSGLNDFFEAQKIEWHE
LA koff [2]: 0.15 s⁻¹

B3: PS639: two copies of PS557 in tandem separated by Linker 3 (protein)
chain: MPTAASATESAIEDTPAPARPEVDGRTKPKRQPRYHVVLWNDDDHTYQYVVVMLQSLFGHPPERGYRLAKEVDTQGRVIVLTTTREHAELKRDQIHAFGYDRLLARSKGSMKASIEAEEGSAGSAAGSGEFGSAGSAAGSGEFGSAGSAAGSGEFMPTAASATESAIEDTPAPARPEVDGRTKPKRQPRYHVVLWNDDDHTYQYVVVMLQSLFGHPPERGYRLAKEVDTQGRVIVLTTTREHAELKRDQIHAFGYDRLLARSKGSMKASIEAEEGGSHHHHHHHHHHGGGSGGGSGGGSGLNDFFEAQKIEWHEGGGSGGGSGGGSGLNDFFEAQKIEWHE
N-terminal amino acids bound (biolayer interferometry) [1]: N-terminal I, L, and V

B4: PS637: two copies of PS557 in tandem separated by Linker 1 (protein)
chain: MPTAASATESAIEDTPAPARPEVDGRTKPKRQPRYHVVLWNDDDHTYQYVVVMLQSLFGHPPERGYRLAKEVDTQGRVIVLTTTREHAELKRDQIHAFGYDRLLARSKGSMKASIEAEEGGGSGGGSGGGSGMPTAASATESAIEDTPAPARPEVDGRTKPKRQPRYHVVLWNDDDHTYQYVVVMLQSLFGHPPERGYRLAKEVDTQGRVIVLTTTREHAELKRDQIHAFGYDRLLARSKGSMKASIEAEEGGSHHHHHHHHHHGGGSGGGSGGGSGLNDFFEAQKIEWHEGGGSGGGSGGGSGLNDFFEAQKIEWHE
N-terminal amino acids bound (biolayer interferometry) [1]: N-terminal I, L, and V

B5: PS614: polypeptide with two copies of the ClpS binder PS372 oriented in tandem (protein)
chain: MAFPARGKTAPKNEVRRQPPYNVILLNDDDHTYRYVIEMLQKIFGFPPEKGFQIAEEVDRTGRVILLTTSKEHAELKQDQVHSYGPDPYLGRPCSGSMTCVIEPAVGSAGSAAGSGEFMAFPARGKTAPKNEVRRQPPYNVILLNDDDHTYRYVIEMLQKIFGFPPEKGFQIAEEVDRTGRVILLTTSKEHAELKQDQVHSYGPDPYLGRPCSGSMTCVIEPAVGGSHHHHHHHHHHGGGSGGGSGGGSGLNDFFEAQKIEWHEGGGSGGGSGGGSGLNDFFEAQKIEWHE
N-terminal amino acids bound (biolayer interferometry) [1]: N-terminal I, L, and V

B6: PS703 (protein)
chain: MSDSPVDLKPKPKVKPKLERPKLYKVMLLNDDYTPMSFVTVVLKAVFRMSEDTGRRVMMTAHRFGSAVVVVCERDIAETKAKEATDLGKEAGFPLMFTTEPEEGSAGSAAGSGEFMDKDCEMKRTTLDSPLGKLELSGCEQGLHEIKLLGKGTSAADAVEVPAPAAVLGGPEPLMQATAWLNAYFHQPEAIEEFPVPALHHPVFQQESFTRQVLWKLLKVVKFGEVISYQQLAALAGNPAATAAVKTALSGNPVPILIPCHRVVSSSGAVGGYEGGLAVKEWLLAHEGHRLGKPGLGGSAGSAAGSGEFHHHHHHHHHHGGGSGGGSGGGSGLNDFFEAQKIEWHEGGGSGGGSGGGSGLNDFFEAQKIEWHE
FA koff [3]: 0.7674 s⁻¹

B7: Synechococcus elongatus ClpS2: ClpS protein, SEQ ID NO: 106 (protein, listed as Synechococcus elongatus)
chain: MSPQPDESVLSILGVPRPCVKKRSRNDAFVLTVLTCSLQAIAAPATAPGTTTTRVRQPYPHFRVIVLDDDVNTFQHVAECLLKYIPGMTGDRAWDLTNQVHYEGAATVWSGPQEQAELYHEQLRREGLTMAPLEAA
Binding Pref. [4]: F, W, Y, L | recognition of terminal amino acids (dwell time analysis) [5]: leucine recognition

B8: PS612: polypeptide with tandem copies of two different ClpS monomers (atClpS2-V1 and PS372) (protein)
chain: MSDSPVDLKPKPKVKPKLERPKLYKVMLLNDDYTPMSFVTVVLKAVFRMSEDTGRRVMMTAHRFGSAVVVVCERDIAETKAKEATDLGKEAGFPLMFTTEPEEGSAGSAAGSGEFMAFPARGKTAPKNEVRRQPPYNVILLNDDDHTYRYVIEMLQKIFGFPPEKGFQIAEEVDRTGRVILLTTSKEHAELKQDQVHSYGPDPYLGRPCSGSMTCVIEPAVGGSHHHHHHHHHHGGGSGGGSGGGSGLNDFFEAQKIEWHEGGGSGGGSGGGSGLNDFFEAQKIEWHE
N-terminal amino acids bound (biolayer interferometry) [1]: N-terminal F, W, Y, I, L, and V

B9: PS704 (protein)
chain: MSDSPVDLKPKPKVKPKLERPKLYKVMLLNDDYTPMSFVTVVLKAVFRMSEDTGRRVMMTAHRFGSAVVVVCERDIAETKAKEATDLGKEAGFPLMFTTEPEEGSAGSAAGSGEFMDKDCEMKRTTLDSPLGKLELSGCEQGLHEIKLLGKGTSAADAVEVPAPAAVLGGPEPLMQATAWLNAYFHQPEAIEEFPVPALHHPVFQQESFTRQVLWKLLKVVKFGEVISYQQLAALAGNPAATAAVKTALSGNPVPILIPCHRVVSSSGAVGGYEGGLAVKEWLLAHEGHRLGKPGLGMDKDCEMKRTTLDSPLGKLELSGCEQGLHEIKLLGKGTSAADAVEVPAPAAVLGGPEPLMQATAWLNAYFHQPEAIEEFPVPALHHPVFQQESFTRQVLWKLLKVVKFGEVISYQQLAALAGNPAATAAVKTALSGNPVPILIPCHRVVSSSGAVGGYEGGLAVKEWLLAHEGHRLGKPGLGGSAGSAAGSGEFHHHHHHHHHHGGGSGGGSGGGSGLNDFFEAQKIEWHEGGGSGGGSGGGSGLNDFFEAQKIEWHE
FA koff [3]: 0.6774 s⁻¹

B10: PS218: designed variant of atClpS1 with active-site substitutions, SEQ ID NO: 98 (protein)
chain: MIAEPICMQGEGDGEDGGTNRGTSVITRVKPKTKRPNLYRVLLLNDDYTPFQFVIHILERFFQKDREAAWRITLHVHQHGVGECGVFTYEVAETKVSQVMDFARQHQHPLQCVMEKK
Binding Pref. [4]: F, W, Y, L | Median PW ([6]; FA peptide): 0.78 | mean pulse width ([6]; FA peptide): 1.28 | Median PW ([6]; LF peptide): 0.32 | mean pulse width ([6]; LF peptide): 0.56 | Median PW ([6]; WA peptide): 0.58 | mean pulse width ([6]; WA peptide): 1.00 | Median PW ([6]; YA peptide): 1.06 | mean pulse width ([6]; YA peptide): 1.64
